What is called Tm is the temperature at which the thermal transition is half complete.

The conditions of the data set: whole UniProt chain shown.
The mark [1] stands for this setting: Escherichia coli (strain K12), pH 7, Thermal, DSC, Potassium phosphate 50 mM, KCl 0.5 M, reversible: no.
[2] abbreviates: Escherichia coli (strain K12), pH 7.5, 10 °C, Urea, CD, LcrH.
Setting [3] is: Escherichia coli (strain K12), pH 7.5, 20 °C, Urea, CD, LcrH.
The mark [4] stands for this setting: Equus caballus, pH 4, 25 °C, GdnHCl, CD, Citrate 50 mM.
Where [5] appears, read: Equus caballus, pH 4, 25 °C, GdnHCl, CD, Formate 50 mM.
The mark [6] stands for this setting: Equus caballus, pH 4, 25 °C, Urea, CD, Citrate 50 mM.
The mark [7] stands for this setting: Equus caballus, pH 4, 25 °C, Urea, CD, Formate 50 mM.

B1: L-asparaginase 2 wild type, P00805 (protein)
chain: MEFFKKTALAALVMGFSGAALALPNITILATGGTIAGGGDSATKSNYTVGKVGVENLVNAVPQLKDIANVKGEQVVNIGSQDMNDNVWLTLAKKINTDCDKTDGFVITHGTDTMEETAYFLDLTVKCDKPVVMVGAMRPSTSMSADGPFNLYNAVVTAADKASANRGVLVVMNDTVLDGRDVTKTNTTDVATFKSVNYGPLGYIHNGKIDYQRTPARKHTSDTPFDVSKLNELPKVGIVYNYANASDLPAKALVDAGYDGIVSAGVGNGNLYKSVFDTLATAAKTGTAVVRSSRVPTGATTQDAEVDDAKYGFVASGTLNPQKARVLLQLALTQTKDPQQIQQIFNQY
Take B1: the unfolding free energy (Escherichia coli (strain K12), pH 7.4, 25 °C, Urea, Fluorescence, Tris-HCl 50 mM) came to 11.5 kcal/mol.

B2: Shikimate kinase 2 wild type, P10880 (protein)
chain: MTEPIFMVGARGCGKTTVGRELARALGYEFVDTDIFMQHTSGMTVADVVAAEGWPGFRRRESEALQAVATPNRVVATGGGMVLLEQNRQFMRAHGTVVYLFAPAEELALRLQASPQAHQRPTLTGRPIAEEMEAVLREREALYQDVAHYVVDATQPPAAIVCELMQTMRLPAA
Regarding B2, under “Dickeya chrysanthemi, pH 7.6, 25 °C, Urea, Fluorescence, Tris-HCl 35 mM, KCl 5 mM”, the “denaturant midpoint (higher = more stable)” value was found to be 2.1 M.

B3: DNA-binding transcriptional dual regulator CRP wild type, P0ACJ8 (protein)
chain: MVLGKPQTDPTLEWFLSHCHIHKYPSKSTLIHQGEKAETLYYIVKGSVAVLIKDEEGKEMILSYLNQGDFIGELGLFEEGQERSAWVRAKTACEVAEISYKKFRQLIQVNPDILMRLSAQMARRLQVTSEKVGNLAFLDVTGRIAQTLLNLAKQPDAMTHPDGMQIKITRQEIGQIVGCSRETVGRILKMLEDQNLISAHGKTIVVYGTR
In the case of B3, under setting [1], the Tm stood at 66.4 °C, the “heat capacity change of unfolding” value was 0.42 kcal/mol/K, the “unfolding enthalpy (calorimetric)” value was 131 kcal/mol and the “unfolding enthalpy (van 't Hoff)” value was 231 kcal/mol. In addition, under “Escherichia coli (strain K12), pH 7.9, 20 °C, GdnHCl, CD, Tris-HCl 50 mM, KCl 0.1 M, reversible: yes”, the unfolding free energy was 7.2 kcal/mol. Besides, where the note is “Escherichia coli (strain K12), pH 7.9, 20 °C, Thermal, CD, Tris-HCl 50 mM, KCl 100 mM, reversible: yes”, the unfolding free energy came out at 7.32 kcal/mol.

B4: Aspartate aminotransferase wild type, P00509 (protein)
chain: MFENITAAPADPILGLADLFRADERPGKINLGIGVYKDETGKTPVLTSVKKAEQYLLENETTKNYLGIDGIPEFGRCTQELLFGKGSALINDKRARTAQTPGGTGALRVAADFLAKNTSVKRVWVSNPSWPNHKSVFNSAGLEVREYAYYDAENHTLDFDALINSLNEAQAGDVVLFHGCCHNPTGIDPTLEQWQTLAQLSVEKGWLPLFDFAYQGFARGLEEDAEGLRAFAAMHKELIVASSYSKNFGLYNERVGACTLVAADSETVDRAFSQMKAAIRANYSNPPAHGASVVATILSNDALRAIWEQELTDMRQRIQRMRQLFVNTLQEKGANRDFSFIIKQNGMFSFSGLTKEQVLRLREEFGVYAVASGRVNVAGMTPDNMAPLCEAIVAVL
Take B4: the denaturant m value is, setting by setting: under setting [2], 3.4 kcal/mol/M; under setting [3], 4.8 kcal/mol/M. Also, the unfolding free energy runs as follows: under setting [2], 24.4 kcal/mol; under setting [3], 12 kcal/mol; (Escherichia coli (strain K12), pH 7.5, 25 °C, Urea, enzyme activity, potassium phosphate 20 mM) 10 kcal/mol.

B5: Inorganic pyrophosphatase wild type, P0A7A9 (protein)
chain: MSLLNVPAGKDLPEDIYVVIEIPANADPIKYEIDKESGALFVDRFMSTAMFYPCNYGYINHTLSLDGDPVDVLVPTPYPLQPGSVIRCRPVGVLKMTDEAGEDAKLVAVPHSKLSKEYDHIKDVNDLPELLKAQIAHFFEHYKDLEKGKWVKVEGWENAEAAKAEIVASFERAKNK
As for B5, the Tm reads like this: (Escherichia coli (strain K12), pH 7, Thermal, CD, HEPES 20 mM, MgCl2 5 mM) 84 °C; (Escherichia coli (strain K12), pH 7, Thermal, CD, HEPES 20 mM) 58 °C.

B6: DNA-Binding protein G5P wild type, P69542 (protein)
chain: MIKVEIKPSQAQFTTRSGVSRQGKPYSLNEQLCYVDLGNEYPVLVKITLDEGQPAYAPGLYTVHLSSFKVGQFGSLMIDRLRLVPAK
On to B6, for which, under “Enterobacteria phage fd, pH 7, 25 °C, GdnHCl, CD, MOPS 0.05 M, NaCl 0.1 M, reversible: yes”, the unfolding free energy was 16.3 kcal/mol.

B7: Beta-lactoglobulin-1 wild type, P02758 (protein)
chain: MKCLLLALGLALMCGIQATNIPQTMQDLDLQEVAGKWHSVAMAASDISLLDSESAPLRVYIEKLRPTPEDNLEIILREGENKGCAEKKIFAEKTESPAEFKINYLDEDTVFALDTDYKNYLFLCMKNAATPGQSLVCQYLARTQMVDEEIMEKFRRALQPLPGRVQIVPDLTRMAERCRI
For B7, the denaturant m value reads like this: under setting [4], 4.74 kcal/mol/M; under setting [5], 1.54 kcal/mol/M; under setting [6], 2.9 kcal/mol/M; under setting [7], 0.74 kcal/mol/M. Also, the unfolding free energy under setting [4] came out at 10.1 kcal/mol, the unfolding free energy under setting [5] was 3.92 kcal/mol, the unfolding free energy under setting [6] was 9.83 kcal/mol and the unfolding free energy under setting [7] came to 2.9 kcal/mol.

B8: Chemotaxis protein CheY wild type, P0AE67 (protein)
chain: MADKELKFLVVDDFSTMRRIVRNLLKELGFNNVEEAEDGVDALNKLQAGGYGFVISDWNMPNMDGLELLKTIRADGAMSALPVLMVTAEAKKENIIAAAQAGASGYVVKPFTAATLEEKLNKIFEKLGM
With B8, where the note is “Escherichia coli (strain K12), pH 7, 25 °C, Urea, Fluorescence, Cacodylate 100 mM”, the unfolding free energy was 5.6 kcal/mol.

B9: Protein GrpE wild type, P09372 (protein)
chain: MSSKEQKTPEGQAPEEIIMDQHEEIEAVEPEASAEQVDPRDEKVANLEAQLAEAQTRERDGILRVKAEMENLRRRTELDIEKAHKFALEKFINELLPVIDSLDRALEVADKANPDMSAMVEGIELTLKSMLDVVRKFGVEVIAETNVPLDPNVHQAIAMVESDDVAPGNVLGIMQKGYTLNGRTIRAAMVTVAKAKA
For B9, the Tm reads like this: (Escherichia coli (strain K12), pH 7, Thermal, CD, potassium phosphate 25 mM, reversible: yes) 48 °C; (Escherichia coli (strain K12), pH 7, Thermal, DSC, potassium phosphate 25 mM, reversible: yes) 48 °C.

Values taken from FireProtDB.
